Here are results for one variant from IntAct's records for PubMed 35512704.

The labels stand for the following.
B1: Speckle-type POZ protein (Homo sapiens), O43791 (parent)
chain: MSRVPSPPPPAEMSSGPVAESWCYTQIKVVKFSYMWTINNFSFCREEMGEVIKSSTFSSGANDKLKWCLRVNPKGLDEESKDYLSLYLLLVSCPKSEVRAKFKFSILNAKGEETKAMESQRAYRFVQGKDWGFKKFIRRDFLLDEANGLLPDDKLTLFCEVSVVQDSVNISGQNTMNMVKVPECRLADELGGLWENSRFTDCCLCVAGQEFQAHKAILAARSPVFSAMFEHEMEESKKNRVEINDVEPEVFKEMMCFIYTGKAPNLDKMADDLLAAADKYALERLKVMCEDALCSNLSVENAAEILILADLHSADQLKTQAVDFINYHASDVLETSGWKSMVVSHPHLVAEAYRSLASAQCPFLGPPRKRLKQS

Variants of B1 are the subject of one test. Particulars: with za2g_human AZGP1, P25311.
Chain of za2g_human AZGP1, P25311 (P25311 whole entry): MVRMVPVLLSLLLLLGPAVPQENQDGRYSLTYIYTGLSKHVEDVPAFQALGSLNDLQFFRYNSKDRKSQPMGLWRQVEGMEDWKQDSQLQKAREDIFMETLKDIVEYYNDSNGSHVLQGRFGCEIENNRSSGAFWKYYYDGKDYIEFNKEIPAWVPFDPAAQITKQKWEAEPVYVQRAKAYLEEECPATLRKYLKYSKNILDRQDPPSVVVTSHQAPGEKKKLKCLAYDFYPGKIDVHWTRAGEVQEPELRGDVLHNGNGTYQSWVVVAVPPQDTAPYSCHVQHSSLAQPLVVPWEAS
For the variant MSRVPSPPPPAEMSSGPVAESWCYTQIKVVKFSYMWTINNFSFCREEMGEVIKSSTFSSGANDKLKWCLRVNPKGLDEESKDYLSLCLLLVSCPKSEVRAKFKFSILNAKGEETKAMESQRAYRFVQGKDWGFKKFIRRDFLLDEANGLLPDDKLTLFCEVSVVQDSVNISGQNTMNMVKVPECRLADELGGLWENSRFTDCCLCVAGQEFQAHKAILAARSPVFSAMFEHEMEESKKNRVEINDVEPEVFKEMMCFIYTGKAPNLDKMADDLLAAADKYALERLKVMCEDALCSNLSVENAAEILILADLHSADQLKTQAVDFINYHASDVLETSGWKSMVVSHPHLVAEAYRSLASAQCPFLGPPRKRLKQS [Y87C], the “effect of a mutation on the interaction” value is “with no effect”.

Variants of B1 are the subject of the next test. Particulars: with b2mg_human B2M.
On to MSRVPSPPPPAEMSSGPVAESWCYTQIKVVKFSYMWTINNFSFCREEMGEVIKSSTFSSGANDKLKWCLRVNPKGLDEESKDYLSLCLLLVSCPKSEVRAKFKFSILNAKGEETKAMESQRAYRFVQGKDWGFKKFIRRDFLLDEANGLLPDDKLTLFCEVSVVQDSVNISGQNTMNMVKVPECRLADELGGLWENSRFTDCCLCVAGQEFQAHKAILAARSPVFSAMFEHEMEESKKNRVEINDVEPEVFKEMMCFIYTGKAPNLDKMADDLLAAADKYALERLKVMCEDALCSNLSVENAAEILILADLHSADQLKTQAVDFINYHASDVLETSGWKSMVVSHPHLVAEAYRSLASAQCPFLGPPRKRLKQS [Y87C], for which the “effect of a mutation on the interaction” value is given as “with no effect”.

In a further test the parent is B1. Particulars: with bap1_human BAP1, Q92560.
Regarding MSRVPSPPPPAEMSSGPVAESWCYTQIKVVKFSYMWTINNFSFCREEMGEVIKSSTFSSGANDKLKWCLRVNPKGLDEESKDYLSLCLLLVSCPKSEVRAKFKFSILNAKGEETKAMESQRAYRFVQGKDWGFKKFIRRDFLLDEANGLLPDDKLTLFCEVSVVQDSVNISGQNTMNMVKVPECRLADELGGLWENSRFTDCCLCVAGQEFQAHKAILAARSPVFSAMFEHEMEESKKNRVEINDVEPEVFKEMMCFIYTGKAPNLDKMADDLLAAADKYALERLKVMCEDALCSNLSVENAAEILILADLHSADQLKTQAVDFINYHASDVLETSGWKSMVVSHPHLVAEAYRSLASAQCPFLGPPRKRLKQS [Y87C], the “effect of a mutation on the interaction” value is reported as “with no effect”.

Variants of B1 are the subject of the next test. The note with it: with bcor_human BCOR.
Regarding MSRVPSPPPPAEMSSGPVAESWCYTQIKVVKFSYMWTINNFSFCREEMGEVIKSSTFSSGANDKLKWCLRVNPKGLDEESKDYLSLCLLLVSCPKSEVRAKFKFSILNAKGEETKAMESQRAYRFVQGKDWGFKKFIRRDFLLDEANGLLPDDKLTLFCEVSVVQDSVNISGQNTMNMVKVPECRLADELGGLWENSRFTDCCLCVAGQEFQAHKAILAARSPVFSAMFEHEMEESKKNRVEINDVEPEVFKEMMCFIYTGKAPNLDKMADDLLAAADKYALERLKVMCEDALCSNLSVENAAEILILADLHSADQLKTQAVDFINYHASDVLETSGWKSMVVSHPHLVAEAYRSLASAQCPFLGPPRKRLKQS [Y87C], the “effect of a mutation on the interaction” value was “with no effect”.

The next test covers variants of B1. Particulars: with bcorl_human BCORL1, Q5H9F3.
Chain of bcorl_human BCORL1, Q5H9F3 (Q5H9F3 whole entry): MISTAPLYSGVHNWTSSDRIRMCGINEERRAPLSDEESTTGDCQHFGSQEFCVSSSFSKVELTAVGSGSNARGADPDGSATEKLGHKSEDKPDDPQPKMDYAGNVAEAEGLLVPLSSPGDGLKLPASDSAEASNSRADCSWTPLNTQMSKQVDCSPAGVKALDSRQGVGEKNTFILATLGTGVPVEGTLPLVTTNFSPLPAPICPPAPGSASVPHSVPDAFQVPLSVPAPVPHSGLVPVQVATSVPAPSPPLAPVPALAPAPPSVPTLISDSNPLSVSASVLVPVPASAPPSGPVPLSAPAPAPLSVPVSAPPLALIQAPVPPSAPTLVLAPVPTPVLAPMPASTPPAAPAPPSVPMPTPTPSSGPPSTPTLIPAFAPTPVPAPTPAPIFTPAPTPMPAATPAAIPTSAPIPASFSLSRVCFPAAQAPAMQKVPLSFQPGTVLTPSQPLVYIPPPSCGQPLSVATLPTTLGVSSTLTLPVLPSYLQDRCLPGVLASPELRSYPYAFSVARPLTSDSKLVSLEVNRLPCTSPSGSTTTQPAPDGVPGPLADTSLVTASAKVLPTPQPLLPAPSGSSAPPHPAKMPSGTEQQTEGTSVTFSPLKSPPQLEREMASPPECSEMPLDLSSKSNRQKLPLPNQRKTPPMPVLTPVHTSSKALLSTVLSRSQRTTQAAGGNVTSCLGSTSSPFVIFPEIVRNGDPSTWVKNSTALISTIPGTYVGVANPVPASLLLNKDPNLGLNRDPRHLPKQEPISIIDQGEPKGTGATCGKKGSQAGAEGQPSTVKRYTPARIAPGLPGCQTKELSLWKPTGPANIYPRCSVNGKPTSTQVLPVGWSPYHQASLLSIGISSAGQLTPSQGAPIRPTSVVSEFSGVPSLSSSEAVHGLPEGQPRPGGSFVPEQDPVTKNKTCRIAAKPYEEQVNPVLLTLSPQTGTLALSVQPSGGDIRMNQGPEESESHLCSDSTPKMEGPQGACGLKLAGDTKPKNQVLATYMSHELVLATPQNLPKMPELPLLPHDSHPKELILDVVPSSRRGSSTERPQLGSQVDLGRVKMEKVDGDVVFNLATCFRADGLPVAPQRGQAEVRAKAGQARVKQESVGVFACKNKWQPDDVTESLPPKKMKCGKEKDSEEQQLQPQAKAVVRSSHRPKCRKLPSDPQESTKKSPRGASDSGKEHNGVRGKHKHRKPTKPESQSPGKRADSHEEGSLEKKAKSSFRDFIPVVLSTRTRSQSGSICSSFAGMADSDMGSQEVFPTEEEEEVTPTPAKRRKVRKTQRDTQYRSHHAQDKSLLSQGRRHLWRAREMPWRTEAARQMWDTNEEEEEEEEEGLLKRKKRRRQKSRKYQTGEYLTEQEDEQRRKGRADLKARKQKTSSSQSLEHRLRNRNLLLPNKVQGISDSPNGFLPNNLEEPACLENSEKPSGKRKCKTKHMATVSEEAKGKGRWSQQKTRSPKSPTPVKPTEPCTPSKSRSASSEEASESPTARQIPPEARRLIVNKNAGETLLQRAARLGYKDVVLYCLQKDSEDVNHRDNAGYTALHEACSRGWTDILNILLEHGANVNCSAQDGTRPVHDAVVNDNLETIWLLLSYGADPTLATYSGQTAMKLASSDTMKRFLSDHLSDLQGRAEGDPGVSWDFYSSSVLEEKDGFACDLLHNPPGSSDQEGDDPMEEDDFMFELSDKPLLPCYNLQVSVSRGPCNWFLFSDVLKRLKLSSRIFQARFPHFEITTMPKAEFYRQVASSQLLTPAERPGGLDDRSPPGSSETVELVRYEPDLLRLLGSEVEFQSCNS
For the variant MSRVPSPPPPAEMSSGPVAESWCYTQIKVVKFSYMWTINNFSFCREEMGEVIKSSTFSSGANDKLKWCLRVNPKGLDEESKDYLSLCLLLVSCPKSEVRAKFKFSILNAKGEETKAMESQRAYRFVQGKDWGFKKFIRRDFLLDEANGLLPDDKLTLFCEVSVVQDSVNISGQNTMNMVKVPECRLADELGGLWENSRFTDCCLCVAGQEFQAHKAILAARSPVFSAMFEHEMEESKKNRVEINDVEPEVFKEMMCFIYTGKAPNLDKMADDLLAAADKYALERLKVMCEDALCSNLSVENAAEILILADLHSADQLKTQAVDFINYHASDVLETSGWKSMVVSHPHLVAEAYRSLASAQCPFLGPPRKRLKQS [Y87C], the “effect of a mutation on the interaction” value is reported as “with no effect”.

Variants of B1 are the subject of another test. The note with it: with birc2_human BIRC2, Q13490.
Chain of birc2_human BIRC2, Q13490 (Q13490 whole entry): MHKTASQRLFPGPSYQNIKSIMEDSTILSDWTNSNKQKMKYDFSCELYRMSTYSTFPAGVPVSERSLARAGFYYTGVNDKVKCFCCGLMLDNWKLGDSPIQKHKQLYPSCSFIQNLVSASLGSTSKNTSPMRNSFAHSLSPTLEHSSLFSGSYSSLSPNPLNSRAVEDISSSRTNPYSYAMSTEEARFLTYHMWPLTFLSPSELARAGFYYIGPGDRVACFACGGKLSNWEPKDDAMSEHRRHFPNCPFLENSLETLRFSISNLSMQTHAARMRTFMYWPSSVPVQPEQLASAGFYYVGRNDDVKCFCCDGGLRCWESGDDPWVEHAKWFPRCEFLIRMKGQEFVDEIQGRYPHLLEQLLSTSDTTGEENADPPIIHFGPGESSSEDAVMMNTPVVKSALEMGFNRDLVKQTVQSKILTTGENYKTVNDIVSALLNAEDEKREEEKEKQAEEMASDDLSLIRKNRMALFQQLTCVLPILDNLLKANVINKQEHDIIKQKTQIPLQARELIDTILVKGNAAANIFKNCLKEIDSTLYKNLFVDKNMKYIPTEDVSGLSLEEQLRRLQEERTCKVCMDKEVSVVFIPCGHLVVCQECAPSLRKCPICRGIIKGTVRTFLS
Take MSRVPSPPPPAEMSSGPVAESWCYTQIKVVKFSYMWTINNFSFCREEMGEVIKSSTFSSGANDKLKWCLRVNPKGLDEESKDYLSLCLLLVSCPKSEVRAKFKFSILNAKGEETKAMESQRAYRFVQGKDWGFKKFIRRDFLLDEANGLLPDDKLTLFCEVSVVQDSVNISGQNTMNMVKVPECRLADELGGLWENSRFTDCCLCVAGQEFQAHKAILAARSPVFSAMFEHEMEESKKNRVEINDVEPEVFKEMMCFIYTGKAPNLDKMADDLLAAADKYALERLKVMCEDALCSNLSVENAAEILILADLHSADQLKTQAVDFINYHASDVLETSGWKSMVVSHPHLVAEAYRSLASAQCPFLGPPRKRLKQS [Y87C]: the “effect of a mutation on the interaction” value is reported as “with no effect”.

A further test covers variants of B1. The note with it: with brd4_human BRD4, O60885.
With MSRVPSPPPPAEMSSGPVAESWCYTQIKVVKFSYMWTINNFSFCREEMGEVIKSSTFSSGANDKLKWCLRVNPKGLDEESKDYLSLCLLLVSCPKSEVRAKFKFSILNAKGEETKAMESQRAYRFVQGKDWGFKKFIRRDFLLDEANGLLPDDKLTLFCEVSVVQDSVNISGQNTMNMVKVPECRLADELGGLWENSRFTDCCLCVAGQEFQAHKAILAARSPVFSAMFEHEMEESKKNRVEINDVEPEVFKEMMCFIYTGKAPNLDKMADDLLAAADKYALERLKVMCEDALCSNLSVENAAEILILADLHSADQLKTQAVDFINYHASDVLETSGWKSMVVSHPHLVAEAYRSLASAQCPFLGPPRKRLKQS [Y87C], the “effect of a mutation on the interaction” value is given as “with no effect”.

Variants of B1 are the subject of a further test. Particulars: with baba2_human BABAM2, Q9NXR7.
Turning to MSRVPSPPPPAEMSSGPVAESWCYTQIKVVKFSYMWTINNFSFCREEMGEVIKSSTFSSGANDKLKWCLRVNPKGLDEESKDYLSLCLLLVSCPKSEVRAKFKFSILNAKGEETKAMESQRAYRFVQGKDWGFKKFIRRDFLLDEANGLLPDDKLTLFCEVSVVQDSVNISGQNTMNMVKVPECRLADELGGLWENSRFTDCCLCVAGQEFQAHKAILAARSPVFSAMFEHEMEESKKNRVEINDVEPEVFKEMMCFIYTGKAPNLDKMADDLLAAADKYALERLKVMCEDALCSNLSVENAAEILILADLHSADQLKTQAVDFINYHASDVLETSGWKSMVVSHPHLVAEAYRSLASAQCPFLGPPRKRLKQS [Y87C], the “effect of a mutation on the interaction” value is reported as “with no effect”.

Variants of B1 are the subject of another test. The note with it: with btg1_human BTG1, P62324.
Chain of btg1_human BTG1, P62324 (P62324 whole entry): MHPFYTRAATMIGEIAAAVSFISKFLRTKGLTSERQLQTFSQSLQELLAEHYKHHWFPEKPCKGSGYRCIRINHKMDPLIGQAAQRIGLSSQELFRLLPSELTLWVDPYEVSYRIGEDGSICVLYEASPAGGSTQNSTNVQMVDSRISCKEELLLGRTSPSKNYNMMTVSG
MSRVPSPPPPAEMSSGPVAESWCYTQIKVVKFSYMWTINNFSFCREEMGEVIKSSTFSSGANDKLKWCLRVNPKGLDEESKDYLSLCLLLVSCPKSEVRAKFKFSILNAKGEETKAMESQRAYRFVQGKDWGFKKFIRRDFLLDEANGLLPDDKLTLFCEVSVVQDSVNISGQNTMNMVKVPECRLADELGGLWENSRFTDCCLCVAGQEFQAHKAILAARSPVFSAMFEHEMEESKKNRVEINDVEPEVFKEMMCFIYTGKAPNLDKMADDLLAAADKYALERLKVMCEDALCSNLSVENAAEILILADLHSADQLKTQAVDFINYHASDVLETSGWKSMVVSHPHLVAEAYRSLASAQCPFLGPPRKRLKQS [Y87C]: the “effect of a mutation on the interaction” value is recorded as “with no effect”.

The variants in the next test derive from B1. Particulars: with ccnd1_human CCND1, P24385.
Chain of ccnd1_human CCND1, P24385 (P24385 whole entry): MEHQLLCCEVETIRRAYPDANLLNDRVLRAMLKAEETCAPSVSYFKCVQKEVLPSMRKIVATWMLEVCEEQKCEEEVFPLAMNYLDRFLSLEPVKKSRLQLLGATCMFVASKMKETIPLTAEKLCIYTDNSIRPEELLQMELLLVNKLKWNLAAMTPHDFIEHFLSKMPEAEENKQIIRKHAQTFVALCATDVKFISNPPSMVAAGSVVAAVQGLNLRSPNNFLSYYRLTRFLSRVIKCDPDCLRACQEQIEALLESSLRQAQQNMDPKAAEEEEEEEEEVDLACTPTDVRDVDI
Turning to MSRVPSPPPPAEMSSGPVAESWCYTQIKVVKFSYMWTINNFSFCREEMGEVIKSSTFSSGANDKLKWCLRVNPKGLDEESKDYLSLCLLLVSCPKSEVRAKFKFSILNAKGEETKAMESQRAYRFVQGKDWGFKKFIRRDFLLDEANGLLPDDKLTLFCEVSVVQDSVNISGQNTMNMVKVPECRLADELGGLWENSRFTDCCLCVAGQEFQAHKAILAARSPVFSAMFEHEMEESKKNRVEINDVEPEVFKEMMCFIYTGKAPNLDKMADDLLAAADKYALERLKVMCEDALCSNLSVENAAEILILADLHSADQLKTQAVDFINYHASDVLETSGWKSMVVSHPHLVAEAYRSLASAQCPFLGPPRKRLKQS [Y87C], the “effect of a mutation on the interaction” value is recorded as “with no effect”.

In a further test the parent is B1. Particulars: with ccnd2_human CCND2, P30279.
Chain of ccnd2_human CCND2, P30279 (P30279 whole entry): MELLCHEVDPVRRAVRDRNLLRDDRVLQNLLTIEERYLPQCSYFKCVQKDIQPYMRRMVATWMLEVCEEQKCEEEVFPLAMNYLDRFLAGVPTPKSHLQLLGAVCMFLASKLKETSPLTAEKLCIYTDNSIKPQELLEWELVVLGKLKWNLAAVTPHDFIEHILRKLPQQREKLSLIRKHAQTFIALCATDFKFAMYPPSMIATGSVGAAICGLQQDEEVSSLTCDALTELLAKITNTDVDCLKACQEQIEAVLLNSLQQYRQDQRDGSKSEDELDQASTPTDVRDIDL
Turning to MSRVPSPPPPAEMSSGPVAESWCYTQIKVVKFSYMWTINNFSFCREEMGEVIKSSTFSSGANDKLKWCLRVNPKGLDEESKDYLSLCLLLVSCPKSEVRAKFKFSILNAKGEETKAMESQRAYRFVQGKDWGFKKFIRRDFLLDEANGLLPDDKLTLFCEVSVVQDSVNISGQNTMNMVKVPECRLADELGGLWENSRFTDCCLCVAGQEFQAHKAILAARSPVFSAMFEHEMEESKKNRVEINDVEPEVFKEMMCFIYTGKAPNLDKMADDLLAAADKYALERLKVMCEDALCSNLSVENAAEILILADLHSADQLKTQAVDFINYHASDVLETSGWKSMVVSHPHLVAEAYRSLASAQCPFLGPPRKRLKQS [Y87C], the “effect of a mutation on the interaction” value was “with no effect”.

Variants of B1 are the subject of a further test. The note with it: with ccnd3_human CCND3, P30281.
Chain of ccnd3_human CCND3, P30281 (P30281 whole entry): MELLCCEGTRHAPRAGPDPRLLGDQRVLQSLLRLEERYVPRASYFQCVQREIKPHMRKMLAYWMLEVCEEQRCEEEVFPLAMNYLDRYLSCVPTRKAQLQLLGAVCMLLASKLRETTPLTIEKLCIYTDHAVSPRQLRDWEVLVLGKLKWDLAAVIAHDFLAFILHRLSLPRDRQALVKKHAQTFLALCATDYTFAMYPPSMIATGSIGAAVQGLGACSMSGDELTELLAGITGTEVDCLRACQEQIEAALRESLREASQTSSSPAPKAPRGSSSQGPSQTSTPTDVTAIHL
Take MSRVPSPPPPAEMSSGPVAESWCYTQIKVVKFSYMWTINNFSFCREEMGEVIKSSTFSSGANDKLKWCLRVNPKGLDEESKDYLSLCLLLVSCPKSEVRAKFKFSILNAKGEETKAMESQRAYRFVQGKDWGFKKFIRRDFLLDEANGLLPDDKLTLFCEVSVVQDSVNISGQNTMNMVKVPECRLADELGGLWENSRFTDCCLCVAGQEFQAHKAILAARSPVFSAMFEHEMEESKKNRVEINDVEPEVFKEMMCFIYTGKAPNLDKMADDLLAAADKYALERLKVMCEDALCSNLSVENAAEILILADLHSADQLKTQAVDFINYHASDVLETSGWKSMVVSHPHLVAEAYRSLASAQCPFLGPPRKRLKQS [Y87C]: the “effect of a mutation on the interaction” value is reported as “with no effect”.

The variants in the next test derive from B1. Particulars: with ccne1_human CCNE1, P24864.
Chain of ccne1_human CCNE1, P24864 (P24864 whole entry): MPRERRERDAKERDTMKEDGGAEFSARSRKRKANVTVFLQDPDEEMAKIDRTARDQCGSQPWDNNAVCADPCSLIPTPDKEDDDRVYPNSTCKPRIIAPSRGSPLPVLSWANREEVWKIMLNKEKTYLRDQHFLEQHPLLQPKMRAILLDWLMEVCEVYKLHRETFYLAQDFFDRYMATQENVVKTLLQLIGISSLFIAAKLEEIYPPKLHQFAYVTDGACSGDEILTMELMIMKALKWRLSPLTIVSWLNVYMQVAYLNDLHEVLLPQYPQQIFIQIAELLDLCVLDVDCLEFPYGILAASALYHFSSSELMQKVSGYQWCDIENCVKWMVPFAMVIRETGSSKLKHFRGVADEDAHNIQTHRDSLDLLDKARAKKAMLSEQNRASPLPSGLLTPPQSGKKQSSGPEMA
As for MSRVPSPPPPAEMSSGPVAESWCYTQIKVVKFSYMWTINNFSFCREEMGEVIKSSTFSSGANDKLKWCLRVNPKGLDEESKDYLSLCLLLVSCPKSEVRAKFKFSILNAKGEETKAMESQRAYRFVQGKDWGFKKFIRRDFLLDEANGLLPDDKLTLFCEVSVVQDSVNISGQNTMNMVKVPECRLADELGGLWENSRFTDCCLCVAGQEFQAHKAILAARSPVFSAMFEHEMEESKKNRVEINDVEPEVFKEMMCFIYTGKAPNLDKMADDLLAAADKYALERLKVMCEDALCSNLSVENAAEILILADLHSADQLKTQAVDFINYHASDVLETSGWKSMVVSHPHLVAEAYRSLASAQCPFLGPPRKRLKQS [Y87C], the “effect of a mutation on the interaction” value was “with no effect”.

In the next test the parent is B1. The note with it: with cd44_human CD44, P16070.
Chain of cd44_human CD44, P16070 (P16070 whole entry): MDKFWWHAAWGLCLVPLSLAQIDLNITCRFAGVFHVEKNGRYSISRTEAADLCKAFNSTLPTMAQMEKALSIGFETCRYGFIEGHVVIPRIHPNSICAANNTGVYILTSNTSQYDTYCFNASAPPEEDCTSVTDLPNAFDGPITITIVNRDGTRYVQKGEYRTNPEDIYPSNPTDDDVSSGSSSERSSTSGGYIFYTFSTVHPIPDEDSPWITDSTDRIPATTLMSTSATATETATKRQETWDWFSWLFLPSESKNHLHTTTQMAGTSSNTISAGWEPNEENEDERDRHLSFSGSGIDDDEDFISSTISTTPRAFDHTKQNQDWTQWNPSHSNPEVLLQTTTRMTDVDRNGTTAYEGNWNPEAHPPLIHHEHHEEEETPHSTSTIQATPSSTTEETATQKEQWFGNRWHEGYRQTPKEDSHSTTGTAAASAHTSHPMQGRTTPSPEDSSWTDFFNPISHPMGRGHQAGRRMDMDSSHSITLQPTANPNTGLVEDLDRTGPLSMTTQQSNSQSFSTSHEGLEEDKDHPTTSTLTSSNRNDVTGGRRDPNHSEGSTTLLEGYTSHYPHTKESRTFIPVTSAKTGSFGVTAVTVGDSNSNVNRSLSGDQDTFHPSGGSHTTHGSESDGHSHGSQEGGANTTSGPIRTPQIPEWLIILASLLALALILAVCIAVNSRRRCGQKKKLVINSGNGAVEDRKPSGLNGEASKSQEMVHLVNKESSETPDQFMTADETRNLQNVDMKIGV
Turning to MSRVPSPPPPAEMSSGPVAESWCYTQIKVVKFSYMWTINNFSFCREEMGEVIKSSTFSSGANDKLKWCLRVNPKGLDEESKDYLSLCLLLVSCPKSEVRAKFKFSILNAKGEETKAMESQRAYRFVQGKDWGFKKFIRRDFLLDEANGLLPDDKLTLFCEVSVVQDSVNISGQNTMNMVKVPECRLADELGGLWENSRFTDCCLCVAGQEFQAHKAILAARSPVFSAMFEHEMEESKKNRVEINDVEPEVFKEMMCFIYTGKAPNLDKMADDLLAAADKYALERLKVMCEDALCSNLSVENAAEILILADLHSADQLKTQAVDFINYHASDVLETSGWKSMVVSHPHLVAEAYRSLASAQCPFLGPPRKRLKQS [Y87C], the “effect of a mutation on the interaction” value is reported as “with no effect”.

The next test covers variants of B1. Particulars: with cd79b_human CD79B.
Turning to MSRVPSPPPPAEMSSGPVAESWCYTQIKVVKFSYMWTINNFSFCREEMGEVIKSSTFSSGANDKLKWCLRVNPKGLDEESKDYLSLCLLLVSCPKSEVRAKFKFSILNAKGEETKAMESQRAYRFVQGKDWGFKKFIRRDFLLDEANGLLPDDKLTLFCEVSVVQDSVNISGQNTMNMVKVPECRLADELGGLWENSRFTDCCLCVAGQEFQAHKAILAARSPVFSAMFEHEMEESKKNRVEINDVEPEVFKEMMCFIYTGKAPNLDKMADDLLAAADKYALERLKVMCEDALCSNLSVENAAEILILADLHSADQLKTQAVDFINYHASDVLETSGWKSMVVSHPHLVAEAYRSLASAQCPFLGPPRKRLKQS [Y87C], the “effect of a mutation on the interaction” value is recorded as “with no effect”.
